We go through 18 molecules from US20120231005A1 (Merck Sharp & Dohme, published 2012).

The target of experiment [1] is T1, human PCSK9 (human, UniProt Q8NBP7 31-692, limits assumed). Description: cell-based or functional assay.
In experiment [2] the target is rhesus PCSK9 (rhesus). Description: SPR (Biacore); IgG captured on anti-human IgG, PCSK9 injected. (In general: Surface plasmon resonance follows binding to a sensor surface in real time, without labels.)
Experiment [3] concerns the target T1, human PCSK9. The experiment is described as above. The method, then:
The affinities of those IgG molecules were also measured by Biacore assay. Briefly, anti-human IgG monoclonal antibody form Human Antibody Capture Kit provided by Biacore was immobilized on CM5 chips at a level of 8000 to 10000 RU. […] After each round injection, the sensor chip surface was regenerated by 30 second injection of 3M Magnesium Chloride.

Experiment [4] concerns the target T1, human PCSK9. Description: SPR (Biacore); Fab captured on anti-Fab IgG, PCSK9 injected; 1:1 Langmuir fit. The procedure:
First, goat anti-Fab IgGs were immobilized onto CM5 chip by amine coupling as described above. The anti-Fab IgGs were diluted to 200 μg/ml in pH 5/10 mM Acetate solution, and injected onto the NHS/EDC activated surface to achieve an immobilization level of ˜10,000 RU, followed with surface inactivation by injection of Ethanolamine. […] The sensor chip surface was regenerated by 30 second injection of 100 mM phosphoric acid. The binding sensorgrams were fitted with 1:1 Langmuir binding model to determine the binding affinity.

T1 sequence (Q8NBP7 31-692 limits assumed): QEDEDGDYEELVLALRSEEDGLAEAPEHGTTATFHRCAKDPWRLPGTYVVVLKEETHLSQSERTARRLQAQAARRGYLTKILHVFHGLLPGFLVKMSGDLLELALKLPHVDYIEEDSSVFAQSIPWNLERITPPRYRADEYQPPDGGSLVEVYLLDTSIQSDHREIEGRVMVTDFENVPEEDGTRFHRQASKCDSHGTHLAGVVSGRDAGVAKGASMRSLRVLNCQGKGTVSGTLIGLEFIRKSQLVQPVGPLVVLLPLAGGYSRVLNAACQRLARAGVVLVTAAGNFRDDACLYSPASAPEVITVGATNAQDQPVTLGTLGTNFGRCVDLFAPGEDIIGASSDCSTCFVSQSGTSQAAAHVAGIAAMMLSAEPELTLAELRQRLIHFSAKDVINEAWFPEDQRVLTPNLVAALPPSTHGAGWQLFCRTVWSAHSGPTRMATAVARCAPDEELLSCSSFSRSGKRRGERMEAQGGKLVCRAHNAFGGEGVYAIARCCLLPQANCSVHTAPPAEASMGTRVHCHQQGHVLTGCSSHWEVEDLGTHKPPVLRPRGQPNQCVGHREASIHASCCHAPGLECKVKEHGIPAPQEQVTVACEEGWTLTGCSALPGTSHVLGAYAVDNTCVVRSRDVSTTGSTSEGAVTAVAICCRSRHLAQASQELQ

B1: AX422 IgG2 (antibody, V domains shown)
VH: EVQLLESGGGLVQPGGSLRLSCKASGYTFSSYWMHWVRQAPGKGLEWIGRIDPYSGGTKYNEKFKGKATISRDNSKNTLYLQMNSLRAEDTAVYYCARYGYYLGSYAMDYWGQGTLVTVSS
VL: DIQMTQSPSSLSASVGDRVTITCRASQDVSRYLTWYQQKPGKAPKLLIYAASSLQSGVPSRFSGSGSGTDFTLTISSLQPEDFATYYCQAYDYSLSGYVFGGGTKVEIKR
notes: also called AX422 (55N to S)
The term Kd denotes the equilibrium constant for the complex coming apart. Lower therefore signals tighter binding. B1: in experiment [1], the “IgG IC50 (nM), inhibition of PCSK9 on LDL uptake (Exopolar assay)” value was determined as 5 nM. Moreover, the Kd in experiment [2] turned out to be 1.96 nM; in experiment [3], 2.12 nM.

B2: AX9 Fab (Fab, V domains shown)
VH: EVQLLESGGGLVQPGGSLRLSCKASGYTFSSYWMHWVRQAPGKGLEWIGRIDPYNGGTKYNEKFKGKATISRDNSKNTLYLQMNSLRAEDTAVYYCARYGYYLGSYAMDYWGQGTLVTVSS
VL: DIQMTQSPSSLSASVGDRVTITCRASQDVSKYLAWYQQKPGKAPKLLIYAASSLQSGVPSRFSGSGSGTDFTLTISSLQPEDFATYYCQVYDSSPNAYVFGGGTKVEIKR
Regarding B2, the “Fab IC50 (nM), inhibition of PCSK9 on LDL uptake (Exopolar assay)” value (from here on “Fab IC50 (nM), inhibition of PCSK9”) in experiment [1] came out at 287 nM. Moreover, the dissociation constant Kd in experiment [4] worked out at 23.9 nM.

B3: AX422 Fab (Fab, V domains shown)
VH: EVQLLESGGGLVQPGGSLRLSCKASGYTFSSYWMHWVRQAPGKGLEWIGRIDPYSGGTKYNEKFKGKATISRDNSKNTLYLQMNSLRAEDTAVYYCARYGYYLGSYAMDYWGQGTLVTVSS
VL: DIQMTQSPSSLSASVGDRVTITCRASQDVSRYLTWYQQKPGKAPKLLIYAASSLQSGVPSRFSGSGSGTDFTLTISSLQPEDFATYYCQAYDYSLSGYVFGGGTKVEIK
notes: also called AX189_VH 55N to S
For the molecule B3, the Kd in experiment [4] was determined as 4.1 nM.

B4: AX1 Fab (Fab, V domains shown)
VH: EVQLLESGGGLVQPGGSLRLSCKASGFTFTSYYMHWVRQAPGKGLEWIGRINPDSGSTKYNEKFKGRATISRDNSKNTLYLQMNSLRAEDTAVYYCARGGRLSWDFDVWGQGTLVTVSS
VL: DIQMTQSPSSLSASVGDRVTITCRASQDISRYLAWYQQKPGKAPKLLIYAASSLQSGVPSRFSGSGSGTDFTLTISSLQPEDFATYYCAAYDYSLGGYVFGDGTKVEIKR
notes: Soluble Fab from E. coli TG1 periplasm; Tags encoded by the display vector are not described for the protein
As for B4, in experiment [1], the “Fab IC50 (nM), inhibition of PCSK9” value came to 146 nM. Besides, the Kd in experiment [4] is 6 nM.

B5: AX195 Fab (Fab, V domains shown)
VH: EVQLLESGGGLVQPGGSLRLSCKASGYTFSSYWMHWVRQAPGKGLEWIGRIDPYNGGTKYNEKFKGKATISRDNSKNTLYLQMNSLRAEDTAVYYCARYGYYLGSYAMDYWGQGTLVTVSS
VL: DIQMTQSPSSLSASVGDRVTITCRASQAVSKYLAWYQQKPGKAPKLLIYAASSLQSGVPSRFSGSGSGTDFTLTISSLQPEDFATYYCQAYDYSLGDYVFGGGTKVEIK
In the case of B5, the Kd in experiment [4] stood at 9.9 nM.

B6: AX191 Fab (Fab, V domains shown)
VH: EVQLLESGGGLVQPGGSLRLSCKASGYTFSSYWMHWVRQAPGKGLEWIGRIDPYNGGTKYNEKFKGKATISRDNSKNTLYLQMNSLRAEDTAVYYCARYGYYLGSYAMDYWGQGTLVTVSS
VL: DIQMTQSPSSLSASVGDRVTITCRASQDISKYLAWYQQKPGKAPKLLIYAASSLQSGVPSRFSGSGSGTDFTLTISSLQPEDFATYYCQAYDYSSSAYVFGGGTKVEIK
For B6, in experiment [1], the “Fab IC50 (nM), inhibition of PCSK9” value is 13 nM. Besides, the Kd in experiment [4] was found to be 5.2 nM.

B7: AX199 Fab (Fab, V domains shown)
VH: EVQLLESGGGLVQPGGSLRLSCKASGYTFSSYWMHWVRQAPGKGLEWIGRIDPYNGGTKYNEKFKGKATISRDNSKNTLYLQMNSLRAEDTAVYYCARYGYYLGSYAMDYWGQGTLVTVSS
VL: DIQMTQSPSSLSASVGDRVTITCRASQSVSNYLHWYQQKPGKAPKLLIYAASSLQSGVPSRFSGSGSGTDFTLTISSLQPEDFATYYCQAYDYSLGPYVFGGGTKVEIK
For the molecule B7, binding in experiment [4] was put at a Kd of 26.2 nM.

B8: AX196 Fab (Fab, V domains shown)
VH: EVQLLESGGGLVQPGGSLRLSCKASGYTFSSYWMHWVRQAPGKGLEWIGRIDPYNGGTKYNEKFKGKATISRDNSKNTLYLQMNSLRAEDTAVYYCARYGYYLGSYAMDYWGQGTLVTVSS
VL: DIQITQSPSSLSASVGDRVTITCRASQDVSRYLAWYQQKPGKAPKLLIYAASSLQSGVPSRFSGSGSGTDFTLTISSLQPEDFATYYCESYDYSLSHYVFGGGTKVEIK
In experiment [4], B8 registered a Kd of 18.3 nM.

B9: AX425 Fab (Fab, V domains shown)
VH: EVQLLESGGGLVQPGGSLRLSCKASGYTFSSYWMHWVRQAPGKGLEWIGRIDPYDGGTKYNEKFKGKATISRDNSKNTLYLQMNSLRAEDTAVYYCARYGYYLGSYAMDYWGQGTLVTVSS
VL: DIQMTQSPSSLSASVGDRVTITCRASQDVSRYLTWYQQKPGKAPKLLIYAASSLQSGVPSRFSGSGSGTDFTLTISSLQPEDFATYYCQAYDYSLSGYVFGGGTKVEIK
notes: also called AX189_VH 55N to D
As to B9, in experiment [4], the Kd was determined as 17.6 nM.

B10: AX189 Fab (Fab, V domains shown)
VH: EVQLLESGGGLVQPGGSLRLSCKASGYTFSSYWMHWVRQAPGKGLEWIGRIDPYNGGTKYNEKFKGKATISRDNSKNTLYLQMNSLRAEDTAVYYCARYGYYLGSYAMDYWGQGTLVTVSS
VL: DIQMTQSPSSLSASVGDRVTITCRASQDVSRYLTWYQQKPGKAPKLLIYAASSLQSGVPSRFSGSGSGTDFTLTISSLQPEDFATYYCQAYDYSLSGYVFGGGTKVEIKR
notes: The heavy chain is the Fd chain
Regarding B10, in experiment [1], the “Fab IC50 (nM), inhibition of PCSK9” value worked out at 31 nM. Also, the affinity in experiment [4], expressed as Kd, was 6.3 nM.

B11: AX198 Fab (Fab, V domains shown)
VH: EVQLLESGGGLVQPGGSLRLSCKASGYTFSSYWMHWVRQAPGKGLEWIGRIDPYNGGTKYNEKFKGKATISRDNSKNTLYLQMNSLRAEDTAVYYCARYGYYLGSYAMDYWGQGTLVTVSS
VL: DIQMTQSPSSLSASVGDRVTITCRASQAVSSYLNWYQQKPGKAPKLLIYAASSLQSGVPSRFSGSGSGTDFTLTISSLQPEDFATYYCEAYDYSLGGWVFGGGTKVEIK
As for B11, in experiment [4], binding was characterised by a dissociation constant (Kd) of 4.3 nM.

B12: AX197 Fab (Fab, V domains shown)
VH: EVQLLESGGGLVQPGGSLRLSCKASGYTFSSYWMHWVRQAPGKGLEWIGRIDPYNGGTKYNEKFKGKATISRDNSKNTLYLQMNSLRAEDTAVYYCARYGYYLGSYAMDYWGQGTLVTVSS
VL: DIQMTQSPSSLSASVGDRVTITCRASQAISRYLAWYQQKPGKAPKLLIYAASSLQSGVPSRFSGSGSGTDFTLTISSLQPEDFATYYCQAYDYSLGHYVFGGGTKVEIK
In turn, B12 registered a Kd in experiment [4] of 5.6 nM.

B13: AX194 Fab (Fab, V domains shown)
VH: EVQLLESGGGLVQPGGSLRLSCKASGYTFSSYWMHWVRQAPGKGLEWIGRIDPYNGGTKYNEKFKGKATISRDNSKNTLYLQMNSLRAEDTAVYYCARYGYYLGSYAMDYWGQGTLVTVSS
VL: DIQMTQSPSSLSASVGDRVTTTCRASQAVSRYLTWYQQKPGKAPKLLIYAASSLQSGVPSRFSGSGSGTDFTLTISSLQPEDFATYYCQAYDYSLGAYVFGGGTKVEIK
As for B13, in experiment [4], the Kd was 6.1 nM.

B14: AX200 Fab (Fab, V domains shown)
VH: EVQLLESGGGLVQPGGSLRLSCKASGYTFSSYWMHWVRQAPGKGLEWIGRIDPYNGGTKYNEKFKGKATISRDNSKNTLYLQMNSLRAEDTAVYYCARYGYYLGSYAMDYWGQGTLVTVSS
VL: DIQMTQSPSSLSASVGDRVTITCRASQDVSKYLAWYQQKPGKAPKLLIYAASSLQSGVPSRFSGSGSGTDFTLTISSLQPEDFATYYCEAYDYSLSHYVFGGGTKVEIK
The molecule B14 returned a Kd in experiment [4] of 9.6 nM.

B15: AX193 Fab (Fab, V domains shown)
VH: EVQLLESGGGLVQPGGSLRLSCKASGYTFSSYWMHWVRQAPGKGLEWIGRIDPYNGGTKYNEKFKGKATISRDNSKNTLYLQMNSLRAEDTAVYYCARYGYYLGSYAMDYWGQGTLVTVSS
VL: DIQMTQSPSSLSASVGDRVTITCRASQAISKYLNWYQQKPGKAPKLLIYAASSLQSGVPSRFSGSGSGTDFTLTISSLQPEDFATYYCESYDYSLGRYVFGGGTKVEIK
In experiment [4], B15 displayed a dissociation constant (Kd) of 7 nM.

B16: AX423 Fab (Fab, V domains shown)
VH: EVQLLESGGGLVQPGGSLRLSCKASGYTFSSYWMHWVRQAPGKGLEWIGRIDPYNTGTKYNEKFKGKATISRDNSKNTLYLQMNSLRAEDTAVYYCARYGYYLGSYAMDYWGQGTLVTVSS
VL: DIQMTQSPSSLSASVGDRVTITCRASQDVSRYLTWYQQKPGKAPKLLIYAASSLQSGVPSRFSGSGSGTDFTLTISSLQPEDFATYYCQAYDYSLSGYVFGGGTKVEIK
notes: also called AX189_VH 56G to T
In turn, B16 displayed a Kd in experiment [4] of 32.8 nM.

B17: AX424 Fab (Fab, V domains shown)
VH: EVQLLESGGGLVQPGGSLRLSCKASGYTFSSYWMHWVRQAPGKGLEWIGRIDPYTGGTKYNEKFKGKATISRDNSKNTLYLQMNSLRAEDTAVYYCARYGYYLGSYAMDYWGQGTLVTVSS
VL: DIQMTQSPSSLSASVGDRVTITCRASQDVSRYLTWYQQKPGKAPKLLIYAASSLQSGVPSRFSGSGSGTDFTLTISSLQPEDFATYYCQAYDYSLSGYVFGGGTKVEIK
notes: also called AX189_VH 55N to T
B17: binding in experiment [4] was put at a Kd of 4.2 nM.

B18: AX421 Fab (Fab, V domains shown)
VH: EVQLLESGGGLVQPGGSLRLSCKASGYTFSSYWMHWVRQAPGKGLEWIGRIDPYNEGTKYNEKFKGKATISRDNSKNTLYLQMNSLRAEDTAVYYCARYGYYLGSYAMDYWGQGTLVTVSS
VL: DIQMTQSPSSLSASVGDRVTITCRASQDVSRYLTWYQQKPGKAPKLLIYAASSLQSGVPSRFSGSGSGTDFTLTISSLQPEDFATYYCQAYDYSLSGYVFGGGTKVEIK
notes: also called AX189_VH 56G to E
B18 gave an equilibrium dissociation constant (Kd) in experiment [4] of 6.7 nM.
